{
  "source": "patent US20200397886A1",
  "key": {"[1]": {"target": "DS-Cav1-foldon-I53-50A (respiratory syncytial virus (RSV))", "experiment": "SPR after heat stress of the antigen (70 °C, 1 h); 50 nM DS-Cav1"}, "[2]": {"target": "DS-Cav1-foldon-I53-50 nanostructure (respiratory syncytial virus (RSV))", "experiment": "SPR after heat stress of the antigen (70 °C, 1 h); 50 nM DS-Cav1"}},
  "data": [
    {"substance": "D25 monoclonal antibody", "values": [
      {"measurement": "binding signal retained after 1 hour at 70 °C", "setting": "[1]", "result": 50, "unit": "%"},
      {"measurement": "binding signal retained after 1 hour at 70 °C", "setting": "[2]", "result": 80, "unit": "%"}
    ]}
  ]
}
